Test in all cases: BLI
Background: In BLI a coated tip is dipped into the sample, and binding shifts an interference pattern.

For assay [1], the target named is T1, FMDV A/AF72 146S antigen (foot-and-mouth disease virus serotype …).
For assay [2], the target named is T2, FMDV O/Tibet/99 146S antigen (foot-and-mouth disease virus serotype …).
Assay [3] has as its target T1, FMDV A/AF72 146S antigen. The source holds these as a separate data set.
For assay [4], the target named is T2, FMDV O/Tibet/99 146S antigen. The source holds these as a separate data set.

B1: pOA-2 (antibody, V domains shown)
VH: EEKVVESGGGLVQPGGSLRLSCVGSGFNFKNYEINWVRQAPGKALEWLAYITQTSDFIYYADSVKGRFTISRDNSRNTAYLQMNNLRTEDTARYFCTRAGLTGCKSRHCMYVWGPGAEVVVSS
VL: QTVIQEPAMSVSLGGTVTLTCGFISGSVTGTNYPSWFQQTPGQPPRLLIYYANSRPTEVPSRFSGAISGNKAALTITGAQAEDEADYFCCLYKTNNNILFGGGTHLTVL
By koff is commonly meant a measure of how fast the partners let go of each other. Broadly, the Kd is the free concentration of one partner at which half of the binding sites on the other are occupied at equilibrium, for simple one-to-one binding. A higher Kd goes with lower affinity. B1: the koff in the assay with FMDV A/AF72 146S antigen [1] is 0.00249 s⁻¹; in assay [2] it was 0.00242 s⁻¹. The Kd in the assay with FMDV A/AF72 146S antigen [3] is 4.44 nM; in assay [4], 4.85 nM.

B2: pOA-13 (antibody, V domains shown)
VH: EGQLVQSGGGRVQPGGSLRLVCVGSGDDGLGHYAVTWVRQAPGRGLEWLASDASRVTTTYYADSVKGRFTSTLDIPHNTAYLQMNSLKTEDTARYFCARNVWTLDIWGPGVEVVVS
VL: QTVIQEPAMSVSLGGTVTLTCAFRGGSVDGDNYPGWLRQQTPGQPPRLLISSTNNRPTGVPSRFSGTISGNKATLTITGAQTEDEADYFCALWNDNNNRLIFGGGTRLTVL
For the molecule B2, the koff came to 0.00634 s⁻¹ with FMDV A/AF72 146S antigen [1] and 0.00143 s⁻¹ in assay [2]. In addition, the Kd amounted to 5.11 nM in the assay with FMDV A/AF72 146S antigen [3] and 1.8 nM in assay [4].

B3: pOA-1 (antibody, V domains shown)
VH: EENVVESGGGLVRPGGSLRLSCIFSGFTFSTYSVRWVRQAPGKGLEFLTYIFKNVGDIDTADSVKGRFTISRDNSQNTAYLQMNSLRPEDTARYFCLVANKYWGPGVEVLVSS
VL: AIVLTQSPLSLSVSPGDSASISCRSSQSLVEDDGSSVLNWYLQRPGQSPQRLIYSAVGRDAGVPDRFSGSGSGTDFTLTISGVEAEDLGVYYCQQSKVSTTFGAGSKLDLK
As to B3, the koff amounted to 0.00467 s⁻¹ with FMDV A/AF72 146S antigen [1] and 2.88e-05 s⁻¹ in assay [2]. The Kd in the assay with FMDV A/AF72 146S antigen [3] is 2.48 nM.

The values are drawn from PMC11508087 (2024).
